Test results: the RNAGym collection of RNA variant scans (doi:10.7554/elife.80360)

B1: CPEB3 Ribozyme (parent)
chain: GGGGGCCACAGCAGAAGCGUUCACGUCGCGGCCCCUGUCAGAUUCUGGUGAAUCUGCGAAUUCUGCUGU

Variants of: B1
Assay: self-cleavage, relative activity (ratio to wild type); higher = more cleavage; co-transcriptional

Q: Which self-cleavage does the source give for G17C G48A here?
A: 0.137

Q: For G17A A51U, which self-cleavage is on record?
A: 0.433

Q: Which self-cleavage does the source give for G17C C29U here?
A: 0.199

Q: For G17C C29G, which self-cleavage is on record?
A: 0.931

Q: Which self-cleavage does the source give for G17A U26A here?
A: 0.349

Q: For G17A A40G, which self-cleavage is on record?
A: 0.344

Q: With G17C A42G as the variant, how does the self-cleavage read?
A: 0.128

Q: For A16U G37C, which self-cleavage is on record?
A: 0.0966

Q: With G17C C66A as the variant, how does the self-cleavage read?
A: 0.145

Q: With G17C C66G as the variant, how does the self-cleavage read?
A: 0.136

Q: Which self-cleavage does the source give for A16U U20G here?
A: 0.108

Q: With G17A G48A as the variant, how does the self-cleavage read?
A: 0.611

Q: With G17A G48U as the variant, how does the self-cleavage read?
A: 0.614

Q: For G17U C27U, which self-cleavage is on record?
A: 0.105

Q: Which self-cleavage does the source give for A16U G50C here?
A: 0.762

Q: With A16U G50A as the variant, how does the self-cleavage read?
A: 0.884

Q: For G17C U20C, which self-cleavage is on record?
A: 0.157

Q: For A16U G17C, which self-cleavage is on record?
A: 0.193

Q: Which self-cleavage does the source give for G17A U69A here?
A: 0.703

Q: Which self-cleavage does the source give for G17C G65C here?
A: 0.195

Q: With G17A C34G as the variant, how does the self-cleavage read?
A: 0.197

Q: For A16U U69G, which self-cleavage is on record?
A: 0.972

Q: With A16U C22U as the variant, how does the self-cleavage read?
A: 0.168

Q: For A16U C22G, which self-cleavage is on record?
A: 0.161

Q: With G17U C33G as the variant, how does the self-cleavage read?
A: 0.224

Q: For G17C, which self-cleavage is on record?
A: 0.166

Q: With G17A as the variant, how does the self-cleavage read?
A: 0.592

Q: Which self-cleavage does the source give for G17U here?
A: 0.643

Q: Which self-cleavage does the source give for A16U C29U here?
A: 0.117

Q: Which self-cleavage does the source give for A16U U62A here?
A: 0.74

Q: Which self-cleavage does the source give for A16U G58U here?
A: 0.814

Q: Which self-cleavage does the source give for A16U U44G here?
A: 0.767

Q: With A16U G31U as the variant, how does the self-cleavage read?
A: 0.295

Q: With A16U G31C as the variant, how does the self-cleavage read?
A: 0.147

Q: With A16U C57A as the variant, how does the self-cleavage read?
A: 0.293

Q: With G17A G47U as the variant, how does the self-cleavage read?
A: 0.562

Q: Which self-cleavage does the source give for G17U A52U here?
A: 0.429

Q: Which self-cleavage does the source give for G17A C29G here?
A: 0.749

Q: With G17A G28C as the variant, how does the self-cleavage read?
A: 0.0891

Q: With G17A C63U as the variant, how does the self-cleavage read?
A: 0.313

Q: Which self-cleavage does the source give for G17C U21A here?
A: 0.116

Q: Which self-cleavage does the source give for G17A C45U here?
A: 0.463

Q: Which self-cleavage does the source give for G17A C35U here?
A: 0.345

Q: For A16U C32A, which self-cleavage is on record?
A: 0.491

Q: Which self-cleavage does the source give for G17A U55C here?
A: 0.141

Q: With G17A U55A as the variant, how does the self-cleavage read?
A: 0.195

Q: Which self-cleavage does the source give for G17C G31A here?
A: 0.111

Q: With G17A U62A as the variant, how does the self-cleavage read?
A: 0.193

Q: For G17C U67A, which self-cleavage is on record?
A: 0.204

Q: Which self-cleavage does the source give for G17A G30C here?
A: 0.161

Q: For G17C C35G, which self-cleavage is on record?
A: 0.153

Q: For G17C C35U, which self-cleavage is on record?
A: 0.15

Q: With G17A U38A as the variant, how does the self-cleavage read?
A: 0.241

Q: For G17A U20A, which self-cleavage is on record?
A: 0.0639

Q: Which self-cleavage does the source give for G17A U20G here?
A: 0.098

Q: For G17U A42G, which self-cleavage is on record?
A: 0.353

Q: Which self-cleavage does the source give for G17C C27U here?
A: 0.16

Q: Which self-cleavage does the source give for G17U C39U here?
A: 0.278

Q: For A16U G25U, which self-cleavage is on record?
A: 0.134

Q: With A16U G25A as the variant, how does the self-cleavage read?
A: 0.206

Q: Which self-cleavage does the source give for G17A C22U here?
A: 0.148

Q: Which self-cleavage does the source give for A16U U55A here?
A: 0.624

Q: With A16U U55C as the variant, how does the self-cleavage read?
A: 0.539

Q: For A16U G48U, which self-cleavage is on record?
A: 0.907

Q: With G17C G50C as the variant, how does the self-cleavage read?
A: 0.111

Q: Which self-cleavage does the source give for G17A G56C here?
A: 0.238

Q: Which self-cleavage does the source give for G17A G56A here?
A: 0.234

Q: Which self-cleavage does the source give for G17A G56U here?
A: 0.178

Q: For G17C U55A, which self-cleavage is on record?
A: 0.177

Q: For G17A G31A, which self-cleavage is on record?
A: 0.158

Q: For G17U C54A, which self-cleavage is on record?
A: 0.188

Q: For G17U C54U, which self-cleavage is on record?
A: 0.461

Q: Which self-cleavage does the source give for G17C U69C here?
A: 0.284

Q: Which self-cleavage does the source give for G17C A52C here?
A: 0.126

Q: With G17C G47A as the variant, how does the self-cleavage read?
A: 0.185

Q: With G17C G47U as the variant, how does the self-cleavage read?
A: 0.149

Q: Which self-cleavage does the source give for A16U U46G here?
A: 0.78

Q: For A16U U46A, which self-cleavage is on record?
A: 0.866

Q: Which self-cleavage does the source give for G17A A42G here?
A: 0.286

Q: Which self-cleavage does the source give for G17C U36C here?
A: 0.118

Q: For A16U U26G, which self-cleavage is on record?
A: 0.461

Q: Which self-cleavage does the source give for A16U G47U here?
A: 0.879

Q: With A16U G47C as the variant, how does the self-cleavage read?
A: 0.906

Q: With G17C C39U as the variant, how does the self-cleavage read?
A: 0.117

Q: For G17A C33G, which self-cleavage is on record?
A: 0.188

Q: For G17A C33A, which self-cleavage is on record?
A: 0.21

Q: For A16U G65U, which self-cleavage is on record?
A: 0.4

Q: With A16U G65C as the variant, how does the self-cleavage read?
A: 0.462

Q: Which self-cleavage does the source give for G17A U61A here?
A: 0.231

Q: Which self-cleavage does the source give for G17A U61C here?
A: 0.264

Q: Which self-cleavage does the source give for G17U C32U here?
A: 0.514

Q: With G17U C32G as the variant, how does the self-cleavage read?
A: 0.135

Q: For A16U U21C, which self-cleavage is on record?
A: 0.322

Q: For A16U U21G, which self-cleavage is on record?
A: 0.294

Q: Which self-cleavage does the source give for G17C A51C here?
A: 0.165

Q: Which self-cleavage does the source give for A16U U67C here?
A: 0.856

Q: With G17A A60C as the variant, how does the self-cleavage read?
A: 0.189

Q: Which self-cleavage does the source give for G17A A60G here?
A: 0.202

Q: Which self-cleavage does the source give for G17A C24U here?
A: 0.142

Q: With A16U U43C as the variant, how does the self-cleavage read?
A: 0.86

Q: With G17C A59G as the variant, how does the self-cleavage read?
A: 0.122

Q: For G17C A59C, which self-cleavage is on record?
A: 0.104

Q: For G17C U61A, which self-cleavage is on record?
A: 0.132

Q: With A16U C63U as the variant, how does the self-cleavage read?
A: 0.732

Q: With A16U C63A as the variant, how does the self-cleavage read?
A: 0.501

Q: For G17U C45A, which self-cleavage is on record?
A: 0.447

Q: Which self-cleavage does the source give for G17A A59C here?
A: 0.308

Q: For G17A A59U, which self-cleavage is on record?
A: 0.246

Q: With A16U G30U as the variant, how does the self-cleavage read?
A: 0.261

Q: For A16U C54G, which self-cleavage is on record?
A: 0.662

Q: For A16U C54U, which self-cleavage is on record?
A: 0.895

Q: For A16U C54A, which self-cleavage is on record?
A: 0.637

Q: With G17U A40C as the variant, how does the self-cleavage read?
A: 0.147

Q: With G17U A40G as the variant, how does the self-cleavage read?
A: 0.352

Q: With G17U C57A as the variant, how does the self-cleavage read?
A: 0.192

Q: Which self-cleavage does the source give for G17U C57G here?
A: 0.16

Q: Which self-cleavage does the source give for G17C U53C here?
A: 0.134

Q: For G17C U53A, which self-cleavage is on record?
A: 0.144

Q: For G17C C33G, which self-cleavage is on record?
A: 0.171

Q: Which self-cleavage does the source give for G17C C18A here?
A: 0.118

Q: With G17C C18G as the variant, how does the self-cleavage read?
A: 0.148

Q: Which self-cleavage does the source give for G17C C45A here?
A: 0.119

Q: For G17C G68U, which self-cleavage is on record?
A: 0.21

Q: For A16U G41A, which self-cleavage is on record?
A: 0.411

Q: Which self-cleavage does the source give for A16U G41U here?
A: 0.497

Q: Which self-cleavage does the source give for G17C C22U here?
A: 0.145

Q: With G17A U43G as the variant, how does the self-cleavage read?
A: 0.177

Q: With G17A U43A as the variant, how does the self-cleavage read?
A: 0.253

Q: For G17A U43C, which self-cleavage is on record?
A: 0.336

Q: With G17C U38A as the variant, how does the self-cleavage read?
A: 0.155

Q: For G17C C32G, which self-cleavage is on record?
A: 0.0951

Q: Which self-cleavage does the source give for A16U U53C here?
A: 0.66

Q: With A16U G68A as the variant, how does the self-cleavage read?
A: 0.953

Q: For G17U C34A, which self-cleavage is on record?
A: 0.195

Q: Which self-cleavage does the source give for G17C G37U here?
A: 0.107

Q: For G17U A59C, which self-cleavage is on record?
A: 0.179

Q: For G17A A52C, which self-cleavage is on record?
A: 0.431

Q: Which self-cleavage does the source give for A16U G19C here?
A: 0.112

Q: For G17C G41A, which self-cleavage is on record?
A: 0.136

Q: Which self-cleavage does the source give for G17C C63A here?
A: 0.162

Q: For A16U C45U, which self-cleavage is on record?
A: 0.893

Q: With A16U C45G as the variant, how does the self-cleavage read?
A: 0.839

Q: With G17A C18U as the variant, how does the self-cleavage read?
A: 0.122

Q: With G17A C32A as the variant, how does the self-cleavage read?
A: 0.164

Q: Which self-cleavage does the source give for G17A U46A here?
A: 0.634

Q: Which self-cleavage does the source give for G17A U46G here?
A: 0.591

Q: For G17A C27U, which self-cleavage is on record?
A: 0.172

Q: With G17A C27G as the variant, how does the self-cleavage read?
A: 0.134

Q: With G17A C27A as the variant, how does the self-cleavage read?
A: 0.126

Q: For G17A G37U, which self-cleavage is on record?
A: 0.146

Q: Which self-cleavage does the source give for G17C U62C here?
A: 0.194

Q: With G17C C54U as the variant, how does the self-cleavage read?
A: 0.145

Q: Which self-cleavage does the source give for G17U A23U here?
A: 0.714

Q: For A16U U36G, which self-cleavage is on record?
A: 0.111

Q: With G17A U67C as the variant, how does the self-cleavage read?
A: 0.491

Q: Which self-cleavage does the source give for A16U C18G here?
A: 0.167

Q: For A16U C18U, which self-cleavage is on record?
A: 0.301

Q: For A16U C27G, which self-cleavage is on record?
A: 0.115

Q: For A16U C27A, which self-cleavage is on record?
A: 0.205

Q: With A16U C27U as the variant, how does the self-cleavage read?
A: 0.125

Q: For G17C U44G, which self-cleavage is on record?
A: 0.137

Q: With G17C U44C as the variant, how does the self-cleavage read?
A: 0.141

Q: Which self-cleavage does the source give for G17C U44A here?
A: 0.24

Q: For A16U U38G, which self-cleavage is on record?
A: 0.272

Q: For A16U C24U, which self-cleavage is on record?
A: 0.337

Q: For A16U C24G, which self-cleavage is on record?
A: 0.141

Q: With G17C C57G as the variant, how does the self-cleavage read?
A: 0.0859
